What is called Kd is the equilibrium constant for the complex coming apart. One may read the koff as the rate constant with which the complex falls apart.

This is an account of results in PMC4802085 (2016).

For assay [1], the target named is T1, recombinant PGRMC1 of the surface plasmon resonance analyses (human, UniProt O00264 44-195). Briefly: SPR; haem-bound PGRMC1. (SPR reads the build-up and loss of mass on a sensor chip optically.)
Assay [2] concerns the target T1, recombinant PGRMC1 of the surface …. Briefly: SPR; haem-bound PGRMC1. The source holds these as a separate data set.
The target of assay [3] is T2, HO1 (Homo sapiens).
T2 chain: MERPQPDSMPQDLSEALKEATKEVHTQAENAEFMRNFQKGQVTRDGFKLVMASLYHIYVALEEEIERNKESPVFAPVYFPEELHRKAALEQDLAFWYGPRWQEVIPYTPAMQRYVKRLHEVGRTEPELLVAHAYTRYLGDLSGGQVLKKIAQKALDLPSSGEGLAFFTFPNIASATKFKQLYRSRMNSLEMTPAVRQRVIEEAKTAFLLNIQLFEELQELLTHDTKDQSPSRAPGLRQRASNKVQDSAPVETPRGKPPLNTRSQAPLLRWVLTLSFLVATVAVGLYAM
Description: SPR.

The target in assay [4] is T2, HO1. Description: SPR.
For assay [5], the target named is Gαi1 (Homo sapiens). Briefly: SPR.
The target of assay [6] is Gαi1 (Homo sapiens). Briefly: SPR. The source holds these as a separate data set.

T1 sequence (O00264 44-195): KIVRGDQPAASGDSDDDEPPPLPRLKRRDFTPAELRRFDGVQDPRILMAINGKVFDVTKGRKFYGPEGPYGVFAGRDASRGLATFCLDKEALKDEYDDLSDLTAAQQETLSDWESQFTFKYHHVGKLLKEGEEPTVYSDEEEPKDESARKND
Gαi1 (Homo sapiens), sequence (chain, as listed by the source): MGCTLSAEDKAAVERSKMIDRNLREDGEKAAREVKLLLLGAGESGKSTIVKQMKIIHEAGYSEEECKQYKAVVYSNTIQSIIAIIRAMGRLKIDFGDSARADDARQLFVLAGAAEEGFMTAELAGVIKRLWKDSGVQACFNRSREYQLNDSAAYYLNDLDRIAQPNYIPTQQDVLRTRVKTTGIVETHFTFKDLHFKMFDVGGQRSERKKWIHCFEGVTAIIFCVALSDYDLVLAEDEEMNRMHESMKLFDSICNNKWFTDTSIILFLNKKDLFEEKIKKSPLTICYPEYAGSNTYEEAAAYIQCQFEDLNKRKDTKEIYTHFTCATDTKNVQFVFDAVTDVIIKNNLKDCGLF

B1: recombinant CYP51 (enzyme)
chain: MAAAAGMLLLGLLQAGGSVLGQAMEKVTGGNLLSMLLIACAFTLSLVYLIRLAAGHLVQLPAGVKSPPYIFSPIPFLGHAIAFGKSPIEFLENAYEKYGPVFSFTMVGKTFTYLLGSDAAALLFNSKNEDLNAEDVYSRLTTPVFGKGVAYDVPNPVFLEQKKMLKSGLNIAHFKQHVSIIEKETKEYFESWGESGEKNVFEALSELIILTASHCLHGKEIRSQLNEKVAQLYADLDGGFSHAAWLLPGWLPLPSFRRRDRAHREIKDIFYKAIQKRRQSQEKIDDILQTLLDATYKDGRPLTDDEVAGMLIGLLLAGQHTSSTTSAWMGFFLARDKTLQKKCYLEQKTVCGENLPPLTYDQLKDLNLLDRCIKETLRLRPPIMIMMRMARTPQTVAGYTIPPGHQVCVSPTVNQRLKDSWVERLDFNPDRYLQDNPASGEKFAYVPFGAGRHRCIGENFAYVQIKTIWSTMLRLYEFDLIDGYFPTVNYTTMIHTPENPVIRYKRRSK
As to B1, the Kd in assay [1] was found to be 5.9 µM. In addition, the koff in assay [2] is 0.0012 s⁻¹.

B2: CPR (protein)
chain: MGDSHVDTSSTVSEAVAEEVSLFSMTDMILFSLIVGLLTYWFLFRKKKEEVPEFTKIQTLTSSVRESSFVEKMKKTGRNIIVFYGSQTGTAEEFANRLSKDAHRYGMRGMSADPEEYDLADLSSLPEIDNALVVFCMATYGEGDPTDNAQDFYDWLQETDVDLSGVKFAVFGLGNKTYEHFNAMGKYVDKRLEQLGAQRIFELGLGDDDGNLEEDFITWREQFWPAVCEHFGVEATGEESSIRQYELVVHTDIDAAKVYMGEMGRLKSYENQKPPFDAKNPFLAAVTTNRKLNQGTERHLMHLELDISDSKIRYESGDHVAVYPANDSALVNQLGKILGADLDVVMSLNNLDEESNKKHPFPCPTSYRTALTYYLDITNPPRTNVLYELAQYASEPSEQELLRKMASSSGEGKELYLSWVVEARRHILAILQDCPSLRPPIDHLCELLPRLQARYYSIASSSKVHPNSVHICAVVVEYETKAGRINKGVATNWLRAKEPAGENGGRALVPMFVRKSQFRLPFKATTPVIMVGPGTGVAPFIGFIQERAWLRQQGKEVGETLLYYGCRRSDEDYLYREELAQFHRDGALTQLNVAFSREQSHKVYVQHLLKQDREHLWKLIEGGAHIYVCGDARNMARDVQNTFYDIVAELGAMEHAQAVDYIKKLMTKGRYSLDVWS
modifications: FAD and FMN cofactors; literature comparison value, construct not given, full length and human species assumed haem state not stated; literature comparison value, the cited study may have used a C-terminally truncated soluble form
Take B2: the koff with HO1 [3] was determined as 0.004 s⁻¹. Further, the affinity with HO1 [4], expressed as Kd, was 2.4 µM.

B3: Neuroglobin (protein)
chain: MERPEPELIRQSWRAVSRSPLEHGTVLFARLFALEPDLLPLFQYNCRQFSSPEDCLSSPEFLDHIRKVMLVIDAAVTNVEDLSSLEEYLASLGRKHRAVGVKLSSFSTVGESLLYMLEKCLGPAFTPATRAAWSQLYGAVVQAMSRGWDGE
modifications: haem b bound (oxidation state not stated); literature comparison value, construct not given; check residues are from general knowledge, not the paper nucleotide state not stated; literature comparison value, construct and species not given; check residues are from general knowledge, not the paper
Turning to B3, the koff with Gαi1 [5] was found to be 0.0003 s⁻¹. In the assay with Gαi1 [6], this molecule displayed a Kd of 0.6 µM.
